How the values were obtained:
[1] = molecular target: T1, long IGF-II (IGF-II precursor) (human, UniProt P01344 25-180); assay: ELISA, Fab on immobilized long IGF-II
T1 construct: Expressed in E. coli as His-tagged long IGF-II; also called long His6-IGF-II; His-tagged long IGF-II; not shown: His6 tag from the E. coli expression vector (pRSET)

[2] = molecular target: T2, IGF-I (UniProt P05019 49-118); assay: ELISA, antigens immobilized on the plate, single Fab concentration not shown, OD405
T2 construct: also called insulin-like growth factor I

[3] = molecular target: T3, mature IGF-II (human, UniProt P01344 25-91); assay: ELISA, 50 ng mature IGF-II immobilized, OD405
T3 construct: also called mature form of IGF-II
Protocol: (§1) Binding of the antibodies was measured by ELISA with 50 ng of either mature or precursor IGF-II immobilized on plates.

[4] = molecular target: T1, long IGF-II (IGF-II precursor); assay: Biacore 1000 SPR, IGF-II immobilized on CM5 chip, Fab injected, 1:1 Langmuir fit, 25° C.
Protocol: (§2) The binding of the Fabs was measured by using ELISA and Biacore surface plasmon resonance technology. […] Interactions between various Fabs and IGF-II were analyzed by surface plasmon resonance technology using a BIACORE 1000 instrument (Biacore, Pharmacia, Piscataway, N.J.). IGF-II was covalently immobilized onto a sensor chip (CM5) using carbodiimide coupling chemistry. A control reference surface was prepared for nonspecific binding and refractive index changes. For analysis of the kinetics of interactions, varying concentrations of Fabs were injected at flow rate of 30 μl/min using running buffer containing 150 mM NaCl, 3 mM EDTA, and 0.005% P-20 (pH 7.4). The association and dissociation phase data were fitted simultaneously to a 1:1 Langumir global model by using the nonlinear data analysis program BIAevaluation 3.2. All the experiments were performed at 25° C.
(§3) Biacore analysis was used to examine their binding affinities in more detail.

[5] = molecular target: T4, BSA (Bos taurus, UniProt P02769); assay: ELISA, antigens immobilized on the plate, single Fab concentration not shown, OD405
T4 construct: also called bovine serum albumin
T4 sequence (P02769 25-607 limits assumed): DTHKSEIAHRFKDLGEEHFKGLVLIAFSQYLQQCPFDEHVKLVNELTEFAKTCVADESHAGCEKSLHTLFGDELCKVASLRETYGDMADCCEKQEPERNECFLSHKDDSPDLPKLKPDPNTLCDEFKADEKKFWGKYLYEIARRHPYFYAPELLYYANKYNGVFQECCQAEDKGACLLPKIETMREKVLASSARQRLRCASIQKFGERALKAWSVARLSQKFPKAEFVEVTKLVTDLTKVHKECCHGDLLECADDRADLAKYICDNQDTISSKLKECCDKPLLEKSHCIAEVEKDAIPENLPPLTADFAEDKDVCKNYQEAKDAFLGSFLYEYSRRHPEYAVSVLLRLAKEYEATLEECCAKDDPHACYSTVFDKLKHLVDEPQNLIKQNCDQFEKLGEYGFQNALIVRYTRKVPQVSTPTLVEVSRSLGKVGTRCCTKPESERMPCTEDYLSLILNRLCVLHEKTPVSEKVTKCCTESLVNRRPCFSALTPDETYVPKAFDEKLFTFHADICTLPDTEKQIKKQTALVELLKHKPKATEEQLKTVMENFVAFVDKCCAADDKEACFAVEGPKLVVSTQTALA

[6] = molecular target: T1, long IGF-II (IGF-II precursor); assay: Biacore SPR, Fab on long IGF-II
Protocol: as §2, §3

[7] = molecular target: T1, long IGF-II (IGF-II precursor); assay: ELISA, long IGF-II immobilized at 50 ng/well, bound Fab detected with anti-FLAG-HRP, OD405
[8] = molecular target: T1, long IGF-II (IGF-II precursor); assay: ELISA, 50 ng long (precursor) IGF-II immobilized, OD405
Protocol: as §1

| EC50 [1] | binding result [2] | EC50 (read off the curve) [3] | Kd [4] | koff [4] | kon [4] | binding result [5] | Ka [6] | Kd [6] | kon [6] | EC50 (read off the curve) [7] | EC50 (read off the curve) [8] | koff [6] | Binder |
| --- | --- | --- | --- | --- | --- | --- | --- | --- | --- | --- | --- | --- | --- |
|  |  | ~0.4 nM |  |  |  |  |  |  |  |  |  |  | IgG1 m606 (antibody, V domains shown, Whole IgG made from the Fab in 293 Free Style cells; also called IgG m606; m606 IgG; not shown: rest of the IgG1 heavy chain constant region supplied by vector pDR12) VH: QVQLVESGAEVKKPGASVKVSCKASGYTFTSYYMHWVRQAPGQGLEWMGIINPSGGSTSYAQKFQGRVTMTRDTSTSTVYMELSSLRSEDTAVYYCARDRSIAAMGWFDHWGQGTLVTVSS VL: DIQMTQSPSSVSASVGDRVTITCRASQGISSWLVWYQQKPGKAPKLLIYAASRLQSGVPSRFSGSGSGTLFTLIINNLQPEDFATYYCQQSNSVPLTFGGGTKVEIKR |
|  |  | ~0.5 nM |  |  |  |  |  |  |  |  | ~0.4 nM |  | IgG1 m610 (antibody, V domains shown, Whole IgG made from the Fab in 293 Free Style cells; also called IgG m610; IgG M610; not shown: rest of the IgG1 heavy chain constant region supplied by vector pDR12) VH: QVQLVQSGAEVKKPGASVKVSCKASGYTFTSYYMHWVRQAPGQGLEWMGIINPSGGSTSYAQKFQGRVTMTRDTSTSTVYMELSRLRSDDTAVYYCARDVQWLAYGMDVWGQGTTVTVSS VL: not shown |

More lines, now with the values behind:

| Binder | EC50 [1] | binding result [2] | EC50 (read off the curve) [3] | Kd [4] | koff [4] | kon [4] | binding result [5] | Ka [6] | Kd [6] | kon [6] | EC50 (read off the curve) [7] | EC50 (read off the curve) [8] | koff [6] |
| --- | --- | --- | --- | --- | --- | --- | --- | --- | --- | --- | --- | --- | --- |
| Fab m616 (Fab, V domains shown, Soluble Fab from E. coli periplasm; also called clone M616) VH: SQVQVLVKPSQTLSLTCAISGDSVSSNSAAWNWIRQSPSRGLEWLGRTYYRSKWYNDYAVSVKSRITINPDTSKNQFSLQLNSVTPEDTAVYYCAREKGIGRGITGTTIPYNWFDPWGQGTLVTVSS VL: SSYEITQPPSVSVTPGQTARITCSGDALPKHFAYWYQQKPGQAPVLIIYKDTERPSGIPERFSGSNSGNTATLTISRVEAGDEADYYCQVWDSSSGWVFGGGTKLTVQG | ~4 nM | no binding |  |  |  |  |  |  |  |  |  |  |  |
| Fab m606 (Fab, V domains shown, also called clone M606) VH: QVQLVESGAEVKKPGASVKVSCKASGYTFTSYYMHWVRQAPGQGLEWMGIINPSGGSTSYAQKFQGRVTMTRDTSTSTVYMELSSLRSEDTAVYYCARDRSIAAMGWFDHWGQGTLVTVSS VL: DIQMTQSPSSVSASVGDRVTITCRASQGISSWLVWYQQKPGKAPKLLIYAASRLQSGVPSRFSGSGSGTLFTLIINNLQPEDFATYYCQQSNSVPLTFGGGTKVEIKR | ~4 nM | no binding |  | 0.7 nM | 0.00025 s⁻¹ | 350000 M⁻¹ s⁻¹ | no binding | 1.41e+09 M⁻¹ | 0.711 nM | 351000 M⁻¹ s⁻¹ | ~6 nM |  |  |
| Fab m610 (Fab, V domains shown, also called clone M610) VH: QVQLVQSGAEVKKPGASVKVSCKASGYTFTSYYMHWVRQAPGQGLEWMGIINPSGGSTSYAQKFQGRVTMTRDTSTSTVYMELSRLRSDDTAVYYCARDVQWLAYGMDVWGQGTTVTVSS VL: not shown | ~4 nM | no binding |  | 0.9 nM | 0.00026 s⁻¹ | 290000 M⁻¹ s⁻¹ |  | 1.09e+09 M⁻¹ | 0.918 nM | 286000 M⁻¹ s⁻¹ |  |  | 0.000262 s⁻¹ |
